Source: patent publication US5834244, “Factor VIIa inhibitors from Kunitz domain proteins” (Genentech, Inc., dated 1998)
Changes are numbered by the printed parent chain. No end group written: not given here.

Tests used:
[1] = biological target: TF-FVIIa complex in the PT assay (full length TF on 293 cell membranes with the Factor VII/VIIa of normal … (human, UniProt P08709)); assay: cell-based or functional assay
[2] = biological target: human activated protein C (human, UniProt P04070); assay: chromogenic enzyme inhibition assay, apparent Ki*
[3] = biological target: T1, human Factor XIIa (human, UniProt P00748); assay: chromogenic enzyme inhibition assay, apparent Ki*
T1 sequence 1: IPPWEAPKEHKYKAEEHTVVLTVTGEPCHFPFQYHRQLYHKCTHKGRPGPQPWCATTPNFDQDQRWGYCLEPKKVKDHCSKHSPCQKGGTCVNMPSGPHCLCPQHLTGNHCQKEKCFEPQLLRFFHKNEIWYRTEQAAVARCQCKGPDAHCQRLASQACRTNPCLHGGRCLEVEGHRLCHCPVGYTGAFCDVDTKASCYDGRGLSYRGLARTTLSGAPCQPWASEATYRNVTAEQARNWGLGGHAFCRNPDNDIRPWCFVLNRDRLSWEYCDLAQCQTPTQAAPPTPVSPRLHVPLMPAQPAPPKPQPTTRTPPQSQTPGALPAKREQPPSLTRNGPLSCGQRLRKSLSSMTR
T1 sequence 2: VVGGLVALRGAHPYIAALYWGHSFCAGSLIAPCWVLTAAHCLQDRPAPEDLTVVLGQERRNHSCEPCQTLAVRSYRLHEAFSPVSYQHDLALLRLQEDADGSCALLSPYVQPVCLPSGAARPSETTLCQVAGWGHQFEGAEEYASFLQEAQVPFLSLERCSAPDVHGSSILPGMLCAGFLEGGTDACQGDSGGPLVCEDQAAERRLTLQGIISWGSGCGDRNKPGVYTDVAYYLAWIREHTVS

[4] = biological target: human thrombin (human, UniProt P00734); assay: chromogenic enzyme inhibition assay, apparent Ki*
[5] = biological target: human Factor Xa (human, UniProt P00742); assay: chromogenic enzyme inhibition assay, apparent Ki*
[6] = biological target: human plasmin (human, UniProt P00747); assay: chromogenic enzyme inhibition assay (plasmin 15 nM, S2251), apparent Ki*
Protocol: (§1) Aliquots (25 μL) from each well of a microtiter plate containing the serially diluted inhibitors were transferred into new microtiter plates, each containing a different protease (100 μL) in the appropriate buffer. The proteases tested (protease concentration, buffer, substrate) were FVIIa (10 nM, Buffer A, 0.7 mM S2366), FXIa (1.0 nM, Buffer B containing 1 mg/ml BSA, 0.7 mM S2366), plasma kallikrein (3.5 nM, Buffer B, 0.5 mM S2302), and plasmin (15 nM, Buffer B, 1 mM S2251). Buffer A contains 50 mM Tris, pH 7.5, 100 mM NaCl, 10 mM CaCl_2, 0.5% BSA, 60 nM TF_1-243, and 1 mM CHAPS (Sigma). Buffer B contains 50 mM Tris, pH 7.5, 100 mM NaCl, 2 mM CaCl_2 and 0.005% Triton X-100.

[7] = biological target: human plasma kallikrein (human, UniProt P03952); assay: chromogenic enzyme inhibition assay, apparent Ki* (value in FIG. 4)
Protocol: as §1

B1: IV-32B (designed binder)
chain: VREVCSEQAEPGPCKALMKRWYFDVTEGKCAPFYYGGCYGNRNNFDTEEYCAAVCGSA
fold prolongation of clotting time, PT assay in normal human plasma [1]: 1.4 fold prolongation at 40 µM inhibitor

B2: APPI, Alzheimer's amyloid β-protein precursor inhibitor (other)
chain: VREVCSEQAETGPCRAMISRWYFDVTEGKCAPFFYGGCGGNRNNFDTEEYCMAVCGSA
modifications: not fully specified (bridges); ends and bridges not checked
fold prolongation of clotting time, PT assay in normal human plasma [1]: 1.5 fold prolongation at 40 µM inhibitor | Ki [2]: > 10 µM | binding result [2]: no binding (tested: >10 µM) | Ki [3]: > 10 µM | binding result [3]: no binding (tested: >10 µM) | Ki [4]: > 10 µM | binding result [4]: no binding (tested: >10 µM) | Ki [5]: > 10 µM | binding result [5]: no binding (tested: >10 µM)

B3: IV-49C (designed binder)
chain: B1 chain with K15R, Y34I
fold prolongation of clotting time, PT assay in normal human plasma [1]: 2.5 fold prolongation at 40 µM inhibitor

B4: IV-54C (designed binder)
chain: B1 chain with K15R, Y34V
fold prolongation of clotting time, PT assay in normal human plasma [1]: 2.1 fold prolongation at 40 µM inhibitor

B5: TF7I-C (designed binder)
chain: B1 chain with K15R, M18I, K19L, Y34F
modifications: ends and bridges not checked; cysteine pairing not given here
Ki [6]: 0.04 µM | binding result [2]: no binding (tested: >10 µM) | binding result [3]: no binding (tested: >10 µM) | binding result [7]: binds
